In US20240301048A1 (LANIER BIOTHERAPEUTICS, published 2024):

How the values were obtained:
[1] = target: T1, recombinant human IL-17A (R&D Systems) (human, UniProt Q16552 24-155); assay: SPR, Biacore T-100; antibody immobilized on CM5 chip, rhIL17A 2.5-40 nM as analyte, single cycle kinetics
T1 construct: Bought recombinant protein; also called rhIL17A
Method: The surface was regenerated with a 30 second exposure of 10 mM Glycine-HCL pH 1.5. Single cycle kinetic analysis was performed on each antibody with the reference cell subtracted.

[2] = target: T1, recombinant human IL-17A (R&D Systems); assay: cell-based or functional assay
[3] = target: T1, recombinant human IL-17A (R&D Systems); assay: cell-based or functional assay; remark: listed apart in the source
[4] = target: T1, recombinant human IL-17A (R&D Systems); assay: cell-based or functional assay; remark: listed apart in the source

T1 sequence (Q16552 24-155 limits assumed): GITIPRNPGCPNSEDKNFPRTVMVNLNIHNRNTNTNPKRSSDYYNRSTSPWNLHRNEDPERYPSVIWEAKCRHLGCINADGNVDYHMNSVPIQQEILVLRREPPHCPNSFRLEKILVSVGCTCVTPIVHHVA

B1: ABM64 (antibody, V domains shown)
VH: QVHVKQSGPELVRPGVSVKISCKGSGYTFTDYAMHWVKQSHAKSLEWIGVISTYSGNTNYNQKFKGKATMTVDKSSSTAYMELARLTSEDSAIYYCARGNYGSDWGQGTLVTVSA
VL: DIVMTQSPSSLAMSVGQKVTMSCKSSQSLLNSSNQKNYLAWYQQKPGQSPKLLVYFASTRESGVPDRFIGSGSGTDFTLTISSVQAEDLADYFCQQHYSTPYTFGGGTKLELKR
Q: How did the Kd [1] turn out when B1 was run?
A: 248 pM

Q: What about the koff [1] of the same binder?
A: 0.000311 s⁻¹

Q: What about the kon [1] of the same binder?
A: 1.25e+06 M⁻¹ s⁻¹

B2: ABM59 (antibody, V domains shown)
VH: EVKLVESGGGLVKPGGSLKLSCAASGFAFSSYDMSWVRQTPEKRLEWVAYISSGGGNTYYPDTVKGRFTISRDNAKNTLYLQMSSLKSEDTAMYYCAREALTMISTRDYYAMDYWGQGTSVTVSS
VL: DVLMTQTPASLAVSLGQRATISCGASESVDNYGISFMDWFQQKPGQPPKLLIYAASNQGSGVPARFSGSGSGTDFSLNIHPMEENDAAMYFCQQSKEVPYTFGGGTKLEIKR
Q: B2 was tested. Which Kd [1] did it give?
A: 506 pM

Q: What about the koff [1] of the same binder?
A: 0.00057 s⁻¹

Q: What about the kon [1] of the same binder?
A: 1.13e+06 M⁻¹ s⁻¹

B3: ABM60 (antibody, V domains shown)
VH: EVHLKESGPDLVAPSQSLSITCTVSGFSLTTYGVHWVRQPPGKGLEWLVVIWSDGLTTYNSALKSRLSISKDNSKSQVFLKMNSLRTDDTAMYYCARDYTYEYAMDYWGQGTTVTVSS
VL: DILLTQSPLSLPVSLGDQASISCRSSQSLVHSNGNTYLHWYLQKPGQSPKLLIYKVSNRFSGVPDRFSGSESGTDFTLKISRVEAEDLGVYFCSQSTHVPFTFGSGTKLEIKR
Q: Which results are given for B3?
A: Kd [1]: 240 pM; koff [1]: 5.65e-05 s⁻¹; kon [1]: 278000 M⁻¹ s⁻¹; IC50 (read off the curve), IL-6 in 3T3 cells [2]: ~0.8 µg/mL

B4: Ixekizumab (antibody, V domains shown)
VH: QVQLVQSGAEVKKPGSSVKVSCKASGYSFTDYHIHWVRQAPGQGLEWMGVINPMYGTTDYNQRFKGRVTITADESTSTAYMELSSLRSEDTAVYYCARYDYFTGTGVYWGQGTLVTVSS
VL: DIVMTQTPLSLSVTPGQPASISCRSSRSLVHSRGNTYLHWYLQKPGQSPQLLIYKVSNRFIGVPDRFSGSGSGTDFTLKISRVEAEDVGVYYCSQSTHLPFTFGQGTKLEIKR
Q: With B4 as the binder, how does the “IL-17A Bioassay Potency (IC50, nM)” value [3] read?
A: 0.39 nM

Q: What about the Kd [1] of the same binder?
A: 6.9 pM

Q: And the koff [1]?
A: 1.39e-05 s⁻¹

Q: And the kon [1]?
A: 2.01e+06 M⁻¹ s⁻¹

Q: And the “IC50 (read off the curve), IL-6 in 3T3 cells” value [2]?
A: ~0.2 µg/mL

Q: And the “IC50 (read off the curve), CXCL1 in HT29 cells” value [4]?
A: ~0.1 µg/mL

B5: ABM67 (antibody, V domains shown)
VH: EVKLVESGGGLVKPGGSLKLSCAASGFTFSSYAMSWVRQTPEKRLEWVATISSGGSYTYYPDSVKGRFTISRDNAKNTLYLQMSSLRSEDTAMYYCARQNWDAFVYWGQGTLVTASA
VL: DIVLTQSPAILSVSPGERVSFSCRAGQSIGTSIHWYQRRTNGSPRLLIKSASESISGIPSRFSGSGSGTDFTLSINSVESEDIADYYCQQSNSWPLTFGAGTKLEIKR
Q: With B5 as the binder, how does the Kd [1] read?
A: 169 pM

Q: And the koff [1]?
A: 0.000121 s⁻¹

Q: And the kon [1]?
A: 713000 M⁻¹ s⁻¹
